These results are taken from the supplement of paper PMC12764529.

± gives the half width of the 95% confidence interval.

The nature of series [1]: folding stability dG unfold (combined trypsin and chymotrypsin); higher = more stable. In short, it runs like this: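 Mini-proteins designed to be under 80 residues and free of cysteine were carried in a PA-tagged cDNA display construct and digested with trypsin and with chymotrypsin. Each protease was applied at 11 threefold-diluted concentrations, alongside a no-protease condition, before sequencing. K50 came from Bayesian fitting of the sequencing counts, and unfolding free energy was obtained by comparing it with a sequence-predicted unfolded-state K50 and a shared folded-state K50, for each protease separately or for both together. Designs were retained only if their AlphaFold2 dimer inter-PAE exceeded 15.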

Series [2] is described as follows: folding stability dG unfold from trypsin proteolysis; higher = more stable. The procedure: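 Folding stability of de novo designed mini-proteins (<80 aa, no Cys; designed by TrROS, TrMRF, ProteinMPNN and the joint model) was measured by cDNA display proteolysis with trypsin and chymotrypsin. Each protease was used at 11 concentrations in a threefold dilution series plus a no-protease condition. K50 was inferred by Bayesian fitting of sequencing counts, and dG unfold was derived against a sequence-predicted unfolded-state K50 (Tsuboyama et al. method). Sequences shown include variable-length N-terminal GS-type padding (SAGGSAGG...) inside a display construct carrying a PA tag. Rows were kept only if the AF2 dimer inter-PAE was >15, to exclude likely homo-oligomers.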

As for “DWKTRTVMFPVPPGDLEEAKDRAKELAKELPPGNKIEIEMPNPDGHYFMVTVTVDPNGEIDIDVSPGMRPIS [r1_350_TrROS]”, the “folding stability dG unfold” value was -0.547 ± 0.38 kcal/mol in series [1] and -0.418 ± 0.29 kcal/mol in series [2].
For “GMAEELAVEKAKEYLAPIPKPYEIDPEKKTVTLPGGGPLKTIPILVTVKDENGNVIKVIEVPIKVVSIPPGS [r1_318_JUSTAS]”, the figures for the “folding stability dG unfold” value in series [1] and in series [2] were -0.159 ± 0.25 kcal/mol and 0.0543 ± 0.093 kcal/mol, respectively.
For the sequence “MAVTPEVLERMREEGVPEEVLAELGEVAVPSSDPRPEYIAELRALPGVSEVSPIPPTDPAALAALPERLLES [r1_248_JUSTAS]”, the “folding stability dG unfold” value in series [1] is under -1 kcal/mol; in series [2], -0.884 ± 0.54 kcal/mol.
Regarding “MHKVEHTIKHPGYEIKIEVTMYPNPNGNYYVPIKIEREDPKDNKPKKKPIMVPFPPGDPDDFVDWALEEILS [r1_171_TrROS]”, the entries for the “folding stability dG unfold” value in series [1] and in series [2] were -0.207 ± 0.55 kcal/mol and -0.189 ± 0.17 kcal/mol, respectively.
On the same counts, the results for “SAASTLKATLRPPDGSTLDVTVLDPGEGWLLQLGDGSERVSPEELEALLANDPSLVVEELTELPLEELSSAG [r14_336_JUSTAS]” are -0.654 ± 0.2 kcal/mol and 0.175 ± 0.05 kcal/mol.
Take “SAAVSFTPDGRPRRLEPVPPVPPVIEIPVPLNIPESDPAKKEALRKEIKEKIMKELGLPESVPVKVILLSAG [r14_453_JUSTAS]”: the “folding stability dG unfold” value in series [1] is -0.158 ± 0.55 kcal/mol; in series [2] it was 0.199 ± 0.15 kcal/mol.
On to “SAEIEELARKLAEELGAEVVEVKVEKLPNGTVKVTVVVRVNGELYKVTIEYDKETKEITIKIEKLPEEESAG [r14_784_TrROS_Hall]”, for which the “folding stability dG unfold” value is over 6 kcal/mol in series [1] and 3.81 ± 0.48 kcal/mol in series [2].
As to “SAGGGGMPAVKEEVTPVPGGVLTTTTLPDGSVKVTVSPPSGPAVASATKPVPSGSSVTVTVTLRPAALSAGG [r13_584_JUSTAS]”, the “folding stability dG unfold” value in series [1] is -0.335 ± 0.087 kcal/mol; in series [2] it was 0.367 ± 0.019 kcal/mol.
For the sequence “SAGGGKIKKPKPIVIRVPKNSIKVGDDVPVAVLAKALGIDPSAKAKVGEVKPPENGDYELVVVEVESSAGGS [r16_165_TrMRF]”, the “folding stability dG unfold” value in series [1] is under -1 kcal/mol; in series [2], -0.508 ± 0.34 kcal/mol.
For “SAGGGMSTPVGVDSKLTEVREDTETGLITTTSVYRAGSEVTTVTESRPLGNPEDVTTLETTTTPASASAGGS [r16_89_JUSTAS]”, the “folding stability dG unfold” value is -0.204 ± 0.15 kcal/mol in series [1] and 0.0405 ± 0.041 kcal/mol in series [2].
With “SAGGGNMKTITVPASAVTSITRSPTNPNTLTITVSGSGATTTTTLPITPETKITEEGDTVTVTIPGLSAGGS [r16_22_JUSTAS]”, the figures for the “folding stability dG unfold” value in series [1] and in series [2] were -0.263 ± 0.096 kcal/mol and 0.312 ± 0.037 kcal/mol, respectively.
Regarding “SAGGGVTREIPITIKTSEGEPEETITVPAKSREEVDPETGRPVSSVDPGSIEEIKAKLPSSVTSVVLSAGGS [r16_522_JUSTAS]”, the “folding stability dG unfold” value in series [1] is under -1 kcal/mol; in series [2] it was -0.68 ± 0.077 kcal/mol.
As to “SAGGIKLPPGQEIEGKIQYPFPDGMFMTSEQPIRIPPVPPPPPEVEVHLPDGERKPVRSPEEADDAASAGGS [r16_580_TrROS]”, the “folding stability dG unfold” value in series [1] is -0.511 ± 0.26 kcal/mol; in series [2], 0.0184 ± 0.049 kcal/mol.
With “SAGGKWYVMVKYEWRNPDNGKERNIQVPINREALQEGDLEEAVEEAKKFAREWGYPIKKVEINLMPPGSAGG [r13_954_TrROS]”, the “folding stability dG unfold” value in series [1] was -0.232 ± 0.46 kcal/mol; in series [2], -0.106 ± 0.17 kcal/mol.
Regarding “SAGGMLLYEKTVTSSPDDEALKLAKEIEEKLTPPDYITKIKVEVTPLPNGTYKVTIPIEILPPGYPKSAGGS [r16_128_JUSTAS]”, the “folding stability dG unfold” value in series [1] is -0.426 ± 0.19 kcal/mol; in series [2], -0.0273 ± 0.076 kcal/mol.
With “SAGGMTFVKVKPAPVKFGEGDKEYWVVEIVKVLEVEDVGEKPVVKAEKETIIIPKDNPDALKEAGIDASAGG [r13_670_TrMRF]”, the “folding stability dG unfold” value in series [1] was under -1 kcal/mol; in series [2], -1.02 ± 0.22 kcal/mol.
The corresponding values for “SAGGMTSYSVTVELPETGKKITITVPNNDPNVTPEKAAAEAEKRIKAEKEKIKKELEKKPKKPSSKLKSAGG [r13_126_JUSTAS]” are under -1 kcal/mol and -0.907 ± 0.93 kcal/mol.
With “SAGGMVSPEVVKAALDDGNPLPLSEIVARIEAETGLPVEVETGDDSFRIVIRDPNRDVELSSETILLSAGGS [r8_105_JUSTAS]”, the “folding stability dG unfold” value in series [1] is -0.399 ± 0.25 kcal/mol; in series [2], 0.292 ± 0.057 kcal/mol.
As to “SAGGNVEIERNPDGMITVEFPMKSPEQAIEEVKNFLQQQGWKIKDIPVERPPNGWVKITIPIKPPGASAGGS [r8_253_TrROS]”, the “folding stability dG unfold” value was 0.0774 ± 0.3 kcal/mol in series [1] and 0.34 ± 0.057 kcal/mol in series [2].
For the sequence “SAGGNWIMIELPLDDLKNAKPNQKVKIEWPDGKPFEVNAHRHDGRYPVLVRNPENPDKWEPIGEIEIESAGG [r13_745_TrROS]”, the results for the “folding stability dG unfold” value in series [1] and in series [2] were under -1 kcal/mol and -0.0737 ± 0.11 kcal/mol, respectively.
